In US5935824:

Legend:
[1] = biological target: N-CBZ-Ala-Leu
[2] = biological target: N-CBZ-Ala-Pro
[3] = biological target: N-CBZ-Glu-Tyr
[4] = biological target: N-CBZ-Gly-Pro
[5] = biological target: N-CBZ-Pro-Phe
[6] = biological target: control peptide Ala-Leu-Lys-Asp-Ala-Gln-Thr-Asn-Ser-Ser-Ser-Phe
[7] = biological target: N-CBZ-Phe-Ala
[8] = biological target: N-CBZ-Gly-Pro-Leu-Ala-Pro
[9] = biological target: Lys-Lys peptide Pro-Leu-Ser-Arg-Leu-Ser-Val-Ala-Lys-Lys
[10] = biological target: MBP/IgG fusion protein encoded by pMA2-TH-IgG-9 (E. coli; human)

Substance | K^1 min^-1 (first order rate constant, flow digestion at 2 ml/min) [1] [min⁻¹] | K^1 min^-1 (first order rate constant, flow digestion at 2 ml/min) [2] [min⁻¹] | K^1 min^-1 (first order rate constant, flow digestion at 2 ml/min) [3] [min⁻¹] | K^1 min^-1 (first order rate constant, flow digestion at 2 ml/min) [4] [min⁻¹] | K^1 min^-1 (first order rate constant, flow digestion at 2 ml/min) [5] [min⁻¹] | removal of the carboxy-terminal phenylalanine, HPLC of the digestion products [6] [%] | rate of digestion at the flow rate of 4 ml/minute [7] [µmol/min] | kinetic constant of hydrolysis of the remaining Pro-Leu bond, ninhydrin assays of released amino acids [8] [min⁻¹] | first order rate constant of hydrolysis of the Lys-Lys bond, ninhydrin assay of free lysine [9] [min⁻¹] | cleavage of the fusion protein, time course on SDS-PAGE (% cleaved after 5 minutes) [10]
carboxypeptidase Y (from UniProt P00729) (enzyme) | 27.5 | 22.4 | 24.2 | 0.16 | 1.48 | 96 | 42 | 18.4 | 0.16 | 
thrombin (Sigma) (enzyme) |  |  |  |  |  |  |  |  |  | 75
